# Measurements reported in the supplement of paper PMC9112550, “Optimization of the antimicrobial peptide Bac7 by deep mutational scanning” (BMC Biology, 2022).
# Test system: Escherichia coli TOP10
# Assay: shrunken log2 fold change of peptide-encoding DNA abundance (4.5 h post-induction vs induction); higher = less antimicrobial activity (less host growth inhibition)
# Conditions: time post-induction: 4.5 h; library: site-saturation at positions 5, 18, 19, 20
# 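Also: peptides expressed intracellularly from a pBAD plasmid library in pooled LB shake-flask culture, induced with 0.3% L-arabinose, DNA abundance read by NGS, three biological replicates, DESeq2 with apeglm shrinkage.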
row,Sequence,shrunken log2 fold change
1,RRIRLRPPRLPRPRPRPSLMPRP,0.126
2,RRIRYRPPRLPRPRPRPVWMPRP,-0.283
3,RRIRDRPPRLPRPRPRPHTGPRP,-0.0359
4,RRIRRRPPRLPRPRPRPSTIPRP,-0.121
5,RRIRYRPPRLPRPRPRPHFIPRP,-0.214
6,RRIRWRPPRLPRPRPRPYIVPRP,-0.727
7,RRIRRRPPRLPRPRPRPHSEPRP,0.0888
8,RRIRRRPPRLPRPRPRPKRWPRP,0.409
9,RRIRMRPPRLPRPRPRPRTMPRP,0.926
10,RRIRDRPPRLPRPRPRPVRVPRP,0.908
11,RRIRKRPPRLPRPRPRPNLAPRP,0.25
12,RRIRMRPPRLPRPRPRPYKEPRP,0.0136
13,RRIRDRPPRLPRPRPRPAMGPRP,0.399
14,RRIRERPPRLPRPRPRPCHAPRP,-0.301
15,RRIRSRPPRLPRPRPRPTEQPRP,-0.0196
16,RRIRMRPPRLPRPRPRPPMDPRP,0.343
17,RRIRGRPPRLPRPRPRPNWKPRP,0.332
18,RRIRVRPPRLPRPRPRPMIKPRP,-0.156
19,RRIRQRPPRLPRPRPRPCPKPRP,4.03
20,RRIRQRPPRLPRPRPRPKCTPRP,-0.0317
21,RRIRERPPRLPRPRPRPRCQPRP,-0.0986
22,RRIRTRPPRLPRPRPRPTQDPRP,0.837
23,RRIRERPPRLPRPRPRPSRWPRP,1.41

row,Sequence,shrunken log2 fold change
1,RRIRLRPPRLPRPRPRPQWIPRP,-0.0288
2,RRIRHRPPRLPRPRPRPSGKPRP,-0.0266
3,RRIRWRPPRLPRPRPRPITMPRP,-0.0679
4,RRIRHRPPRLPRPRPRPKWQPRP,0.0671
5,RRIRSRPPRLPRPRPRPMDIPRP,-0.00112
6,RRIRFRPPRLPRPRPRPGEYPRP,-0.114
7,RRIRQRPPRLPRPRPRPPHWPRP,0.641
8,RRIRGRPPRLPRPRPRPRVVPRP,0.667
9,RRIRERPPRLPRPRPRPDSEPRP,-0.0854
10,RRIRHRPPRLPRPRPRPDEPPRP,0.197
11,RRIRKRPPRLPRPRPRPGAIPRP,0.238
12,RRIRWRPPRLPRPRPRPEFHPRP,0.227
13,RRIRTRPPRLPRPRPRPFRWPRP,0.24
14,RRIRLRPPRLPRPRPRPFKQPRP,-0.0215
15,RRIRCRPPRLPRPRPRPCRIPRP,-0.271
16,RRIRNRPPRLPRPRPRPTSDPRP,-0.148
17,RRIRLRPPRLPRPRPRPYSGPRP,-0.103
18,RRIRHRPPRLPRPRPRPVPNPRP,-8.36e-05
19,RRIRTRPPRLPRPRPRPARKPRP,0.179
20,RRIRGRPPRLPRPRPRPEFDPRP,1.8
21,RRIRYRPPRLPRPRPRPMLWPRP,-0.0139
22,RRIRFRPPRLPRPRPRPAVYPRP,-0.35
23,RRIRIRPPRLPRPRPRPTNRPRP,-0.326

row,Sequence,shrunken log2 fold change
1,RRIRHRPPRLPRPRPRPDGIPRP,-0.0529
2,RRIRSRPPRLPRPRPRPKPYPRP,-0.153
3,RRIRPRPPRLPRPRPRPRKVPRP,0.00959
4,RRIRERPPRLPRPRPRPHPHPRP,-0.167
5,RRIRGRPPRLPRPRPRPCGHPRP,0.666
6,RRIRHRPPRLPRPRPRPPYPPRP,-0.0246
7,RRIRSRPPRLPRPRPRPHEHPRP,0.113
8,RRIRFRPPRLPRPRPRPLGFPRP,-0.146
9,RRIRIRPPRLPRPRPRPRLAPRP,0.237
10,RRIRGRPPRLPRPRPRPKDQPRP,0.843
11,RRIRWRPPRLPRPRPRPPTWPRP,0.802
12,RRIRKRPPRLPRPRPRPWDCPRP,0.121
13,RRIRRRPPRLPRPRPRPCYGPRP,-0.214
14,RRIRARPPRLPRPRPRPEFGPRP,0.874
15,RRIRPRPPRLPRPRPRPIINPRP,-0.909
16,RRIRLRPPRLPRPRPRPICRPRP,-0.13
17,RRIRPRPPRLPRPRPRPREWPRP,0.151
18,RRIRLRPPRLPRPRPRPPVCPRP,0.124
19,RRIRPRPPRLPRPRPRPQSFPRP,0.0475
20,RRIRPRPPRLPRPRPRPVYMPRP,-1.1
21,RRIRIRPPRLPRPRPRPKWWPRP,0.188
22,RRIRSRPPRLPRPRPRPVFRPRP,-0.113
23,RRIRERPPRLPRPRPRPNYQPRP,-0.812

row,Sequence,shrunken log2 fold change
1,RRIRYRPPRLPRPRPRPLCHPRP,-1.18
2,RRIRYRPPRLPRPRPRPHCHPRP,-0.735
3,RRIRFRPPRLPRPRPRPYHEPRP,-0.26
4,RRIRTRPPRLPRPRPRPHIDPRP,-0.0151
5,RRIRDRPPRLPRPRPRPTTQPRP,0.831
6,RRIRVRPPRLPRPRPRPQQVPRP,-0.0278
7,RRIRSRPPRLPRPRPRPRIWPRP,0.183
8,RRIRCRPPRLPRPRPRPCVFPRP,-0.0388
9,RRIRGRPPRLPRPRPRPMLKPRP,0.575
10,RRIRARPPRLPRPRPRPKMCPRP,-0.0542
11,RRIRERPPRLPRPRPRPMIVPRP,-0.477
12,RRIRPRPPRLPRPRPRPDRIPRP,-0.15
13,RRIRKRPPRLPRPRPRPNDTPRP,-0.11
14,RRIRNRPPRLPRPRPRPRGIPRP,-0.0954
15,RRIRFRPPRLPRPRPRPDSNPRP,-0.758
16,RRIRARPPRLPRPRPRPINGPRP,-0.00875
17,RRIRIRPPRLPRPRPRPTSAPRP,0.065
18,RRIRERPPRLPRPRPRPFAVPRP,-0.759
19,RRIRIRPPRLPRPRPRPGDKPRP,-0.218
20,RRIRERPPRLPRPRPRPLRDPRP,-0.0299
21,RRIRHRPPRLPRPRPRPKQDPRP,-0.557
22,RRIRERPPRLPRPRPRPHMHPRP,-0.687
